The data set is described as follows: self-splicing fitness, log relative to wild type (ln ratio); higher = more splicing; Tetrahymena group I intron in knt gene, E. coli kanamycin selection, DiMSum; sequences stand for … in CUCUCU…GGAGGGAAAAGUUAUCAGGCAUGCACCUGGUAGCUAGUCUUUAAACCAAUAGAUUGCAUCGGUUUAAAAGGCAAGACCGUCAAAUUGCGGGAAAGGGGUCAACAGCCGUUCAGUACCAAGUCUCAGGGGAAACUUUGAGAUGGCCUUGCAAAGGGUAUGGUAAUAAGCUGACGGACAUGGUCCUAACCACGCAGCCAAGUCCUAAGUCAACAGAUCUUCUGUUGAUAUGGAUGCAGUUCACAGACUAAAUGUCGGUCGGGGAAGAUGUAUUCUUCUCAUAAGAUAUAGUCGGACCUCUCCUUAAUGGGAGCUAGCGGAUGAAGUGAUGCAACACUGGAGCCGCUGGGAACUAAUUUGUAUGCGAAAGUAUAUUGAUUAGUUUUGGAGUACUCGUGGUCG
An outline of the steps: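 Six replicate transformations of E. coli BL21(DE3) with a pET-22b(+) library were grown overnight at 37°C or 30°C. The library randomised all eight P1ex-region intron nucleotides, the intron lying in the knt kanamycin-resistance gene, and plates were LB agar with or without 25 μg/mL kanamycin plus 100 μg/mL carbenicillin, 50 μM IPTG and 0.2% rhamnose. Pooled colonies were amplicon-sequenced on an Illumina HiSeq 2500, and fitness is the DiMSum error-weighted combination of wild-type-normalised replicate fold changes, kanamycin versus none.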

± gives the uncertainty stated by the source.

Results on 75 sequences are retold here after the supplement of paper PMC7877785.

On to GAACAGCAAUAUUACGGUCU, for which the “self-splicing fitness (ln)” value (30 °C) is -1.16 ± 0.086 and the “self-splicing fitness (ln)” value (37 °C) was -0.205 ± 0.095.
The like results for CACCAGCAAUAUUACGGCUG were, in that order, -3.78 ± 0.13 and -1.29 ± 0.083.
On to GUGGAGCAAUAUUACGAGUG, for which the “self-splicing fitness (ln)” value (37 °C) was -1.74 ± 0.36.
Take GAAUAGCAAUAUUACGCCGG: the “self-splicing fitness (ln)” value runs as follows: (30 °C) -2.65 ± 0.32; (37 °C) -1.79 ± 0.24.
GAUAAGCAAUAUUACGUGCU: the “self-splicing fitness (ln)” value (30 °C) was -2.32 ± 0.18 and the “self-splicing fitness (ln)” value (37 °C) is -1.71 ± 0.19.
CCUUAGCAAUAUUACGGGAU: the “self-splicing fitness (ln)” value is, setting by setting: (30 °C) -3.68 ± 0.29; (37 °C) -2.68 ± 0.27.
Turning to UCAAAGCAAUAUUACGGUUG, the “self-splicing fitness (ln)” value was -1.38 ± 0.086 (30 °C) and -0.732 ± 0.12 (37 °C).
As to CAGUAGCAAUAUUACGCUCA, the “self-splicing fitness (ln)” value runs as follows: (30 °C) -0.118 ± 0.13; (37 °C) 0.5 ± 0.17.
The like results for GGGCAGCAAUAUUACGGAAA were, in that order, -2.77 ± 0.21 and -2.26 ± 0.19.
The like results for UAGCAGCAAUAUUACGUUUG were, in that order, -1.29 ± 0.077 and -1.12 ± 0.11.
As to GCCCAGCAAUAUUACGACCC, the “self-splicing fitness (ln)” value by setting is: (30 °C) -0.0226 ± 0.14; (37 °C) -0.0967 ± 0.21.
For ACCAAGCAAUAUUACGUAGA, the “self-splicing fitness (ln)” value runs as follows: (30 °C) -2.66 ± 0.14; (37 °C) -2.04 ± 0.16.
The like results for UUACAGCAAUAUUACGUACC were, in that order, -1.19 ± 0.21 and -0.649 ± 0.33.
The like results for UCUAAGCAAUAUUACGAAUU were, in that order, -3.75 ± 0.31 and -2.66 ± 0.25.
Take GACCAGCAAUAUUACGAUGG: the “self-splicing fitness (ln)” value (30 °C) was -3.69 ± 0.19 and the “self-splicing fitness (ln)” value (37 °C) is -2.82 ± 0.21.
The like results for CUACAGCAAUAUUACGUCCG were, in that order, -0.955 ± 0.095 and 0.368 ± 0.12.
GAAAAGCAAUAUUACGGGAU: the “self-splicing fitness (ln)” value was -2.18 ± 0.14 (30 °C) and -1.26 ± 0.12 (37 °C).
With AAUAAGCAAUAUUACGUCCU, the “self-splicing fitness (ln)” value by setting is: (30 °C) -0.0473 ± 0.076; (37 °C) 0.0333 ± 0.088.
The like results for GUGAAGCAAUAUUACGAACU were, in that order, -2.15 ± 0.1 and -0.516 ± 0.095.
Take UCCUAGCAAUAUUACGUAAU: the “self-splicing fitness (ln)” value reads like this: (30 °C) -2.99 ± 0.15; (37 °C) -2.37 ± 0.18.
GGCCAGCAAUAUUACGCUCA: the “self-splicing fitness (ln)” value is -0.637 ± 0.13 (30 °C) and -0.183 ± 0.13 (37 °C).
In the case of CUUAAGCAAUAUUACGGACU, the “self-splicing fitness (ln)” value is -3.14 ± 0.15 (30 °C) and -1.62 ± 0.17 (37 °C).
With UGAAAGCAAUAUUACGAUCC, the “self-splicing fitness (ln)” value is, setting by setting: (30 °C) -0.303 ± 0.14; (37 °C) 0.92 ± 0.18.
With GCGAAGCAAUAUUACGGUGC, the “self-splicing fitness (ln)” value was -3.75 ± 0.18 (30 °C) and -2.95 ± 0.18 (37 °C).
For GCGCAGCAAUAUUACGUUAA, the “self-splicing fitness (ln)” value runs as follows: (30 °C) -1.45 ± 0.089; (37 °C) -0.728 ± 0.088.
Regarding AUACAGCAAUAUUACGAGUA, the “self-splicing fitness (ln)” value runs as follows: (30 °C) -1.76 ± 0.16; (37 °C) -0.461 ± 0.1.
Consider UUAUAGCAAUAUUACGGAUA, for which the “self-splicing fitness (ln)” value is, setting by setting: (30 °C) -2.21 ± 0.32; (37 °C) -0.955 ± 0.19.
On to AGGGAGCAAUAUUACGAGUU, for which the “self-splicing fitness (ln)” value runs as follows: (30 °C) -4.48 ± 0.46; (37 °C) -1.45 ± 0.19.
On to AUUGAGCAAUAUUACGUACG, for which the “self-splicing fitness (ln)” value is -3.25 ± 0.29 (30 °C) and -1.53 ± 0.26 (37 °C).
On to CAGGAGCAAUAUUACGGUCG, for which the “self-splicing fitness (ln)” value runs as follows: (30 °C) 0.425 ± 0.084; (37 °C) 0.544 ± 0.12.
The like results for UAGCAGCAAUAUUACGAAAG were, in that order, -2.58 ± 0.21 and -1.73 ± 0.25.
The like results for UCUUAGCAAUAUUACGUGAU were, in that order, -2.43 ± 0.28 and -2.01 ± 0.38.
As to CUUAAGCAAUAUUACGAGAG, the “self-splicing fitness (ln)” value by setting is: (30 °C) -4.39 ± 0.42; (37 °C) -2.48 ± 0.45.
The like results for UGGUAGCAAUAUUACGAGCU were, in that order, -2.09 ± 0.093 and -1.02 ± 0.12.
The like results for GAAAAGCAAUAUUACGACUC were, in that order, 0.143 ± 0.2 and -0.00506 ± 0.28.
The like results for GACGAGCAAUAUUACGCGAG were, in that order, -2.3 ± 0.17 and -2.85 ± 0.26.
On to GAACAGCAAUAUUACGCACU, for which the “self-splicing fitness (ln)” value is, setting by setting: (30 °C) 0.254 ± 0.079; (37 °C) 0.0329 ± 0.11.
The like results for GGGUAGCAAUAUUACGGCUA were, in that order, -0.886 ± 0.24 and -1.24 ± 0.22.
The like results for GAAGAGCAAUAUUACGGACC were, in that order, -1.57 ± 0.14 and -0.884 ± 0.19.
Consider AGCUAGCAAUAUUACGCCUU, for which the “self-splicing fitness (ln)” value runs as follows: (30 °C) -1.7 ± 0.1; (37 °C) -0.609 ± 0.08.
The like results for UAGGAGCAAUAUUACGGUUG were, in that order, -3.11 ± 0.36 and -2.4 ± 0.24.
Regarding CCAGAGCAAUAUUACGUAGU, the “self-splicing fitness (ln)” value is, setting by setting: (30 °C) -4.61 ± 0.22; (37 °C) -2.87 ± 0.21.
On to AAUCAGCAAUAUUACGUACC, for which the “self-splicing fitness (ln)” value (30 °C) is -0.557 ± 0.16 and the “self-splicing fitness (ln)” value (37 °C) is -0.29 ± 0.18.
The like results for CCGAAGCAAUAUUACGGAAA were, in that order, -3.26 ± 0.26 and -3.49 ± 0.31.
The like results for UGACAGCAAUAUUACGUCUA were, in that order, -0.75 ± 0.09 and -0.464 ± 0.098.
The like results for CGGAAGCAAUAUUACGUCUU were, in that order, -1.67 ± 0.083 and -0.53 ± 0.092.
For the sequence GCCCAGCAAUAUUACGGUCG, the “self-splicing fitness (ln)” value is -1.61 ± 0.083 (30 °C) and -1.31 ± 0.096 (37 °C).
Regarding GUCGAGCAAUAUUACGUUCU, the “self-splicing fitness (ln)” value runs as follows: (30 °C) -1.32 ± 0.15; (37 °C) 0.217 ± 0.13.
The like results for CAUCAGCAAUAUUACGUAGU were, in that order, -1.66 ± 0.04 and -0.682 ± 0.06.
Take CGAAAGCAAUAUUACGACAU: the “self-splicing fitness (ln)” value by setting is: (30 °C) -2.721 ± 0.017; (37 °C) -1.41 ± 0.034.
The like results for UAUGAGCAAUAUUACGGAUG were, in that order, -2.09 ± 0.12 and -1.64 ± 0.17.
Take GGGAAGCAAUAUUACGUGGC: the “self-splicing fitness (ln)” value by setting is: (30 °C) -2.16 ± 0.36; (37 °C) -2.73 ± 0.31.
CAUAAGCAAUAUUACGUAAU: the “self-splicing fitness (ln)” value (30 °C) was -4.04 ± 0.28 and the “self-splicing fitness (ln)” value (37 °C) is -2.16 ± 0.14.
On to GACUAGCAAUAUUACGAGCU, for which the “self-splicing fitness (ln)” value reads like this: (30 °C) -1.61 ± 0.13; (37 °C) -0.918 ± 0.093.
For the sequence GCGCAGCAAUAUUACGAAGC, the “self-splicing fitness (ln)” value was -2.98 ± 0.25 (30 °C) and -2.37 ± 0.18 (37 °C).
The like results for CACAAGCAAUAUUACGGACA were, in that order, -2.34 ± 0.12 and -2.29 ± 0.12.
Turning to AGCCAGCAAUAUUACGCUGU, the “self-splicing fitness (ln)” value runs as follows: (30 °C) -3.57 ± 0.2; (37 °C) -3.32 ± 0.19.
Take GCUGAGCAAUAUUACGGAAU: the “self-splicing fitness (ln)” value was -3.57 ± 0.25 (30 °C) and -1.3 ± 0.17 (37 °C).
With UUGCAGCAAUAUUACGAUGG, the “self-splicing fitness (ln)” value was -0.811 ± 0.14 (30 °C) and -1.07 ± 0.19 (37 °C).
With CAGGAGCAAUAUUACGUGGU, the “self-splicing fitness (ln)” value by setting is: (30 °C) -4.08 ± 0.23; (37 °C) -3.15 ± 0.23.
For CCUCAGCAAUAUUACGGAUC, the “self-splicing fitness (ln)” value (37 °C) is -1.41 ± 0.22.
Regarding GAGUAGCAAUAUUACGCCUC, the “self-splicing fitness (ln)” value is -2.22 ± 0.24 (30 °C) and -3.01 ± 0.47 (37 °C).
The like results for CCCGAGCAAUAUUACGUUAC were, in that order, -3.01 ± 0.35 and -2.37 ± 0.32.
Take ACCAAGCAAUAUUACGAUAC: the “self-splicing fitness (ln)” value by setting is: (30 °C) -2.83 ± 0.32; (37 °C) -1.99 ± 0.3.
With UGAUAGCAAUAUUACGACGA, the “self-splicing fitness (ln)” value is -0.476 ± 0.16 (30 °C) and 0.0569 ± 0.18 (37 °C).
As for ACAGAGCAAUAUUACGGAUU, the “self-splicing fitness (ln)” value is, setting by setting: (30 °C) -3.67 ± 0.18; (37 °C) -1.84 ± 0.14.
The like results for UUCCAGCAAUAUUACGGGCG were, in that order, -0.245 ± 0.081 and 0.254 ± 0.097.
The like results for CGCCAGCAAUAUUACGACUA were, in that order, -2.15 ± 0.2 and -2.13 ± 0.2.
The like results for CCAUAGCAAUAUUACGCCCG were, in that order, -0.369 ± 0.16 and 0.418 ± 0.21.
For the sequence UCGCAGCAAUAUUACGUGGA, the “self-splicing fitness (ln)” value (30 °C) was -1.93 ± 0.11 and the “self-splicing fitness (ln)” value (37 °C) was -1.57 ± 0.084.
On to ACUAAGCAAUAUUACGGAAG, for which the “self-splicing fitness (ln)” value reads like this: (30 °C) -2.59 ± 0.13; (37 °C) -1.55 ± 0.15.
For the sequence AAUGAGCAAUAUUACGAUUA, the “self-splicing fitness (ln)” value runs as follows: (30 °C) -2.57 ± 0.11; (37 °C) -1.37 ± 0.1.
The like results for CCUGAGCAAUAUUACGCUUU were, in that order, -1.94 ± 0.17 and -3.14 ± 0.28.
The like results for GCAGAGCAAUAUUACGGGUA were, in that order, -3.16 ± 0.18 and -3.68 ± 0.33.
On to CUAAAGCAAUAUUACGACAC, for which the “self-splicing fitness (ln)” value (37 °C) was -1.88 ± 0.47.
